Source: US20170240635A1 (AGENCY FOR SCIENCE TECHNOLOGY AND RESEARCH, published 2017)
Positions count from the first letter of the chain named.

T1: hICOS-Fc (human, UniProt Q9Y6W8)
T1 construct: also called human ICOS
T1 sequence (antigen, looked up): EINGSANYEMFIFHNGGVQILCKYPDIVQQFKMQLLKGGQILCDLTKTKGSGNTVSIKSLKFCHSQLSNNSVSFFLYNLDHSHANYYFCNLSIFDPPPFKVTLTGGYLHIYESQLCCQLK

T2: human LAG-3 coupled to human Fc (human, UniProt P18627 23-450, limits assumed)
T2 construct: ELISA coating antigen; not shown: human Fc
T2 sequence (looked up): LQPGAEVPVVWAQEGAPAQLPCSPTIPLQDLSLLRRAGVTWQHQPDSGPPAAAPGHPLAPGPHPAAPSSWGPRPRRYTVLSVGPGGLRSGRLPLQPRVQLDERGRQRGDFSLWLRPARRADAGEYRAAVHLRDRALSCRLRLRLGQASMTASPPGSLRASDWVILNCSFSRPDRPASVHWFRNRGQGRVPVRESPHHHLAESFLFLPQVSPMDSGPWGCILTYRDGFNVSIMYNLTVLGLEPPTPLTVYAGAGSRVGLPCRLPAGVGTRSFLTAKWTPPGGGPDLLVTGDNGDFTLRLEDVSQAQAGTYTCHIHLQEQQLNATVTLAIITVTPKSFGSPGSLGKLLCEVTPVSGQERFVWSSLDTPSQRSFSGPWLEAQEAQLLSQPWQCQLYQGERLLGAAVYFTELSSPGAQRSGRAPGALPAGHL

B1: anti-PD-1 antibody clone B6 (Fab) (Fab, V domains shown)
VH: QVQLVESGGGVVQPGRSLRLSCAASGFTFSSYGMHWVRQAPGKGLEWVAVISYDGSNKYYADSVKGRFTISRDNSKNTLYLQMNSLRAEDTAVYYCASDYGAGPYYYGMDVWGQGTTVTVSS
VL: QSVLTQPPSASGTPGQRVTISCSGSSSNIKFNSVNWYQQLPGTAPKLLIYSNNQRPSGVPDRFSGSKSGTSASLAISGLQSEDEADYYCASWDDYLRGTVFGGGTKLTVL
notes: Crude Fab extract in SPR
B2: anti-PD-1 antibody clone C4 (Fab) (Fab, V domains shown)
VH: B1 VH with Y100L, M109L
VL: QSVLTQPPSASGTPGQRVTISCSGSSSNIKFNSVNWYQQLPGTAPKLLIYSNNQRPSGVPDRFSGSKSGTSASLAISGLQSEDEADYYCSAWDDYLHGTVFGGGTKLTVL
notes: Crude Fab extract in SPR
B3: anti-PD-1 antibody clone D4 (Fab) (Fab, V domains shown)
VH: B1 VH with Y100L
VL: QSVLTQPPSASGTPGQRVTISCSGSSSNIKFNSVNWYQQLPGTAPKLLIYSNNQRPSGVPDRFSGSKSGTSASLAISGLQSEDEADYYCASWDDYVRGTMFGGGTKLTVL
notes: Crude Fab extract in SPR
B4: anti-PD-1 antibody clone G2 (Fab) (Fab, V domains shown)
VH: B1 VH with Y100L
VL: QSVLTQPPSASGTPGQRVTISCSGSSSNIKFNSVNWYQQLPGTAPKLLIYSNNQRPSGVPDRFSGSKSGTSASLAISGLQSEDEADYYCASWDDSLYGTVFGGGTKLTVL
notes: Crude Fab extract in SPR
B5: anti-PD-1 antibody clone H4 (Fab) (Fab, V domains shown)
VH: B1 VH with Y100L, A102S, P104Y, Y106L
VL: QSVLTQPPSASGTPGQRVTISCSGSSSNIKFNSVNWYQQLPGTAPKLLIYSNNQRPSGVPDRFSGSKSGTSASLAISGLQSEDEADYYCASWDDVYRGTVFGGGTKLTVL
notes: Crude Fab extract in SPR
B6: anti-PD-1 antibody clone A3 (Fab) (Fab, V domains shown)
VH: B1 VH with E6Q, Y100L, M109K, V111H
VL: B3 VL with Q1L, S2P, Y88F, Y95V, V96L, R97Y, T99S, M100V
notes: Flown as crude Fab extract in SPR
B7: anti-PD-1 antibody clone F2 (Fab) (Fab, V domains shown)
VH: B1 VH with Y100L
VL: B3 VL with A90S, Y95D, V96A, M100I
notes: Crude Fab extract in SPR
B8: anti-PD-1 antibody clone G1 (Fab) (Fab, V domains shown)
VH: B1 VH with Y100L
VL: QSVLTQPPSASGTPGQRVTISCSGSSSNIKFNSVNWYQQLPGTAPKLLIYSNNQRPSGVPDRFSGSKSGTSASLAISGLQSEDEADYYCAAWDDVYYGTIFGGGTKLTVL
notes: Crude Fab extract in SPR
B9: anti-PD-1 antibody clone A10 (Fab) (Fab, V domains shown)
VH: B1 VH with E6Q, Y100L, M109K
VL: B3 VL with Q1L, S2P, Y88F, V96Y, R97Y, M100I
notes: Crude Fab extract in SPR
B10: anti-PD-1 antibody clone H9 (Fab) (Fab, V domains shown)
VH: B1 VH with Y100L
VL: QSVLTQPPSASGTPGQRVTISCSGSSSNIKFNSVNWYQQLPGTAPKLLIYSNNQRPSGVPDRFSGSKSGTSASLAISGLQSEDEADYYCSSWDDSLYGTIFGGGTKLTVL
notes: Crude Fab extract in SPR

These binders were tested against T3, hCTLA4-Fc (human, UniProt P16410) (assay: ELISA; antigen coated 350 ng/well, Fab-containing supernatant, goat anti-human Fab-HRP, absorbance 450-670 nm).
T3 construct: also called human CTLA-4; human CTLA4
T3 sequence (P16410 37-162 limits assumed): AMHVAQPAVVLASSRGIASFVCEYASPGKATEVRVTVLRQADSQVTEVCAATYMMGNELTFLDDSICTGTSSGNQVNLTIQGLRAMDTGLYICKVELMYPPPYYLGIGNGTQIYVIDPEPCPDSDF

Binder	binding result
B1	no binding (tested: not given)
B2	no binding (tested: not given)
B3	no binding (tested: not given)

What follows are binders tested against T1, hICOS-Fc (assay: ELISA; antigen coated 350 ng/well, goat anti-human Fab-HRP, absorbance 450-670 nm).
Protocol: (§1) Anti-PD-1 antibodies were tested in an ELISA assay for their ability to bind to other members of the CD28 family.
(§2) Briefly, ELISA plates were coated with 350 ng/well of one of the following antigens coupled to human Fc in carbonate buffer: human PD-1, human PD-L1, human TIM-3, human LAG-3, human ICOS, human CTLA4, human BTLA, human CD28, mouse TIM-3, or rhesus PD-1. The plate was then blocked with a solution of casein. After extensive washes in PBS Tween-20, antibodies were added into the ELISA wells in the presence of 7% milk in PBS. After 90 minutes at room temperature under agitation and extensive washes, a goat anti-human Fab antibody coupled to HRP was added. One hour later, plates were washed and TMB substrate added. The reaction was stopped with 1M HCl and optical density measured at 450 nm with a reference at 670 nm.

Binder	binding result
B4	no binding (tested: not given)
B5	no binding (tested: not given)
B6	no binding (tested: not given)
B7	no binding (tested: not given)
B8	no binding (tested: not given)
B9	no binding (tested: not given)
B1	no binding (tested: not given)
B2	no binding (tested: not given)
B10	no binding (tested: not given)
B3	no binding (tested: not given)

The binders below were run against T2, human LAG-3 coupled to human Fc in the same assay as above.
Protocol: as §1, §2

Binder	binding result
B4	no binding (tested: not given)
B5	no binding (tested: not given)
B6	no binding (tested: not given)
B7	no binding (tested: not given)
B8	no binding (tested: not given)
B9	no binding (tested: not given)
B1	no binding (tested: not given)
B2	no binding (tested: not given)
B10	no binding (tested: not given)
B3	no binding (tested: not given)

Each binder was assayed against T4, human TIM-3 coupled to human Fc (human, UniProt Q8TDQ0 22-200, limits assumed) in the same assay as above.
T4 construct: not shown: human Fc
Protocol: as §1, §2

Binder	binding result
B4	no binding (tested: not given)
B5	no binding (tested: not given)
B6	no binding (tested: not given)
B7	no binding (tested: not given)
B8	no binding (tested: not given)
B9	no binding (tested: not given)
B1	no binding (tested: not given)
B2	no binding (tested: not given)
B10	no binding (tested: not given)
B3	no binding (tested: not given)

These binders were tested against T5, mTim3-Fc (mouse, UniProt Q8VIM0) in the same assay as above.
T5 construct: also called mouse TIM-3
Protocol: as §1, §2

T5 sequence (Q8VIM0 20-191 limits assumed): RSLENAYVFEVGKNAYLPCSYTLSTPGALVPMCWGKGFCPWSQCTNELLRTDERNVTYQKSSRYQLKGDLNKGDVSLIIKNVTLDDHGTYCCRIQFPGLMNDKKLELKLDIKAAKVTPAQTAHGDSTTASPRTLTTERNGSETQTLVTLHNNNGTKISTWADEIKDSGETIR

Binder	binding result
B4	no binding (tested: not given)
B5	no binding (tested: not given)
B6	no binding (tested: not given)
B7	no binding (tested: not given)
B8	no binding (tested: not given)
B9	no binding (tested: not given)
B1	no binding (tested: not given)
B2	no binding (tested: not given)
B10	no binding (tested: not given)
B3	no binding (tested: not given)

These binders were tested against T6, human BTLA coupled to human Fc (human, UniProt Q7Z6A9 31-150, limits assumed) in the same assay as above.
T6 construct: ELISA coating antigen; not shown: human Fc
Protocol: as §1, §2

T6 sequence (Q7Z6A9 31-150 limits assumed): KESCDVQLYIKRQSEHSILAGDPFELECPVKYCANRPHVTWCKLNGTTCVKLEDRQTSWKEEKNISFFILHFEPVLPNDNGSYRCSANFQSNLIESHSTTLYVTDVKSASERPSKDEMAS

Binder	binding result
B4	no binding (tested: not given)
B5	no binding (tested: not given)
B6	no binding (tested: not given)
B7	no binding (tested: not given)
B8	no binding (tested: not given)
B9	no binding (tested: not given)
B1	no binding (tested: not given)
B2	no binding (tested: not given)
B10	no binding (tested: not given)
B3	no binding (tested: not given)

What follows are binders tested against T3, hCTLA4-Fc in the same assay as above.
Protocol: as §1, §2

Binder	binding result
B4	no binding (tested: not given)
B5	no binding (tested: not given)
B6	no binding (tested: not given)
B7	no binding (tested: not given)
B8	no binding (tested: not given)
B9	no binding (tested: not given)
B10	no binding (tested: not given)

What follows are binders tested against T7, human CD28 coupled to human Fc (human, UniProt P10747 19-152, limits assumed) in the same assay as above.
T7 construct: ELISA coating antigen; not shown: human Fc
Protocol: as §1, §2

Binder	binding result
B4	no binding (tested: not given)
B5	no binding (tested: not given)
B6	no binding (tested: not given)
B7	no binding (tested: not given)
B8	no binding (tested: not given)
B9	no binding (tested: not given)
B1	no binding (tested: not given)
B2	no binding (tested: not given)
B10	no binding (tested: not given)
B3	no binding (tested: not given)

Each binder was assayed against T8, human PD-L1 coupled to human Fc (human, UniProt Q9NZQ7 19-239, limits assumed) in the same assay as above.
T8 construct: ELISA coating antigen; not shown: human Fc
Protocol: as §1, §2

T8 sequence (Q9NZQ7 19-239 limits assumed): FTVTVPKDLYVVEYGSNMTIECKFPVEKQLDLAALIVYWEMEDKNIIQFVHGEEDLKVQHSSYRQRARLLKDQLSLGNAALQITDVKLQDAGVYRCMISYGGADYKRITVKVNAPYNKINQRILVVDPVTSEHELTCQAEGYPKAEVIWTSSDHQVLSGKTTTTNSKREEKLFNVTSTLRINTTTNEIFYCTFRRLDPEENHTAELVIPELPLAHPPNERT

Binder	binding result
B4	no binding (tested: not given)
B5	no binding (tested: not given)
B6	no binding (tested: not given)
B7	no binding (tested: not given)
B8	no binding (tested: not given)
B9	no binding (tested: not given)
B1	no binding (tested: not given)
B2	no binding (tested: not given)
B10	no binding (tested: not given)
B3	no binding (tested: not given)

The binders below were run against T9, human PD-1 coupled to human Fc (human, UniProt Q15116 25-167, limits assumed) (assay: SPR (ProteOn XPR36); human PD-1-Fc immobilised, crude Fab extract flown over).
T9 construct: also called human-PD-1 coupled to Fc; not shown: human Fc
Protocol: Briefly, human or mouse PD-1 coupled to human Fc was immobilised on a sensor chip compatible with the Proteon XPR36 bioanalyser (Biorad). Crude Fab extracts (or the control antibodies) were then flown onto the chip and the association/dissociation of each candidate Fab was then recorded and analysed, the affinity (KD) was calculated.

T9 sequence (Q15116 25-167 limits assumed): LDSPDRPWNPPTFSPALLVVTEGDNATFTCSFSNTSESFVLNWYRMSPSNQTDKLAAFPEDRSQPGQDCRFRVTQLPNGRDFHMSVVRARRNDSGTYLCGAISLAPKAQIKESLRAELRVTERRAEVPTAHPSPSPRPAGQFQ

Binder	Kd [nM]
B4	0.1
B5	0.27
B6	0.2
B7	0.11
B8	0.1
B9	0.08
B1	0.26
B2	0.4
B3	0.22
